In patent publication US20210269525A1 (BIOCYTOGEN PHARMACEUTICALS BEIJING, published 2021):
Positions count from the first letter of the chain named. Names and notes keep the numbering of the source. Where two headings read alike, the source gives them in different places. Blank lines part the entries; values can stand above or below the binder they belong to.

What was measured:
[1] = target: T1, human CD3e (T-cell surface glycoprotein CD3 epsilon chain) (human, UniProt P07766 23-207); test: cell-based or functional assay
[2] = target: T1, human CD3e (T-cell surface glycoprotein …); test: cell-based or functional assay; remark: listed apart in the source
[3] = target: T2, Histidine-tagged human CD3e protein (human, UniProt P07766 23-126); test: SPR (Biacore), human CD3e
T2 construct: also called hCD3e-His; not shown: His tag

[4] = target: T3, Cynomolgus CD3 epsilon Protein, His Tag (Acrobiosystems, Cat #CDE-05226) (cynomolgus (Macaca fascicularis), UniProt Q95LI5 22-117); test: SPR (Biacore), cynomolgus CD3e His tag
T3 construct: also called monkey CD3e; not shown: His tag
T3 sequence: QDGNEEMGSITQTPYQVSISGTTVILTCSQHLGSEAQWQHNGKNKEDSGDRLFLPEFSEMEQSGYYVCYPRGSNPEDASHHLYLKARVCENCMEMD
Method: The binding affinity of the anti-hCD3e antibodies with monkey CD3e (Cynomolgus CD3 epsilon Protein (SEQ ID NO: 39 AA Gln 22-Asp 117), His Tag, Acrobiosystems, Cat #CDE-05226) were also measured using surface plasmon resonance (SPR) using Biacore (Biacore, INC, Piscataway N.J.) by the methods as described in the examples.

[5] = target: T1, human CD3e (T-cell surface glycoprotein …); test: flow cytometry, human PBMC, antibody 1 µg/mL, anti-human IgG Fc-Alexa Fluor647 (1:500), anti-hTcRβ-PerCP (1:30)
Method: (§1) PBMC cells were collected from a human subject. After being thawed, the cells were cultured for 3-4 hours. The medium was then discarded, and the cells were resuspended in phosphate-buffered saline (PBS). The cell concentration was then adjusted to 2×10⁶/25 μl PBS.
(§2) A 96-well plate was prepared. 25 ul of cell suspension was added to each well. […] The cells and the antibodies were incubated. After centrifuge, the residues were discarded. The samples were washed again. 25 ul of PBS was then added to each well to resuspend cells.
(§3) Anti-human IgG Fc-Alexa Fluror647 (1:500) and anit-hTcRβ PerCP (1:30) were then added to each well. The cells and the antibodies were incubated and then the cells were washed again by PBS. 300 ul of PBS was then added to each well to resuspend the cells. FACS was performed.

[6] = target: T1, human CD3e (T-cell surface glycoprotein …); test: flow cytometry, human PBMC, antibody 10 µg/mL, anti-human IgG Fc-Alexa Fluor647 (1:500), anti-hTcRβ-PerCP (1:30)
Method: as §1
A 96-well plate was prepared. 25 ul of cell suspension was added to each well. Anti-hCD3e antibodies with different combinations of humanized 1B1 heavy chain variants and humanized 1B1 light chain variants were diluted to 20 ug/ml (2×) in PBS, and were added to the 96-well plate. The cells and the antibodies were incubated. After centrifuge, the residues were discarded. The samples were washed again. 25 ul of PBS was then added to each well to resuspend cells.
as §3

[7] = target: T1, human CD3e (T-cell surface glycoprotein …); test: flow cytometry, human PBMC, antibody 0.1 µg/mL, anti-human IgG Fc-Alexa Fluor647 (1:500), anti-hTcRβ-PerCP (1:30)
Method: as §1, §2, §3

[8] = target: T4, monkey CD3e (Macaca fascicularis) on PBMC (Macaca fascicularis, UniProt Q95LI5 22-198); test: flow cytometry, Macaca fascicularis PBMC, antibody concentration not given, anti-human IgG Fc-Alexa Fluor647 (1:500), anti-hTcRβ-PerCP (1:30)
T4 construct: Target on PBMC from Macaca fascicularis; also called mfCD3e; monkey PBMC
T4 sequence (Q95LI5 22-198 limits assumed): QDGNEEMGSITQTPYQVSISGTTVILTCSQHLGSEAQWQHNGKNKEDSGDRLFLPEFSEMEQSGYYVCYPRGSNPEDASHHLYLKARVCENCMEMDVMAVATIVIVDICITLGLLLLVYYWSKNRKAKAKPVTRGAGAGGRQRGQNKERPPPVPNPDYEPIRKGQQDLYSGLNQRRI
In short: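 Cynomolgus PBMC incubated with anti-hCD3 antibodies 15 min at 4° C, washed in PBS. Bound antibody detected with anti-human IgG Fc-Alexa Fluor647 (1:500) plus anti-hTcRβ-PerCP (1:30), 15 min at 4° C, then washed and analysed by flow cytometry.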

[9] = target: T2, Histidine-tagged human CD3e protein; test: SPR (Biacore), human CD3e; same numbers as Table 7
[10] = target: T2, Histidine-tagged human CD3e protein; test: SPR, Biacore T200, antibody on Protein A chip, hCD3e-His injected
Method: (§4) The binding affinity of the anti-hCD3e antibodies were measured using surface plasmon resonance (SPR) using Biacore (Biacore, INC, Piscataway N.J.) T200 biosensor equipped with pre-immobilized Protein A sensor chips (Protein A (Lot:10260138)-5).
Anti-hCD3e antibodies were collected from CHO-S cells. The antibodies (1:20) were injected into Biacore T200 biosensor at 10 μL/min for 35 seconds to achieve to a desired protein density. Histidine-tagged human CD3e proteins (hCD3e-His) with different concentrations (100 nM 0.390625 nM) were then injected to the system at 30 μL/min for 150 seconds. Dissociation was monitored for 600 seconds. The chip was regenerated after the last injection of each titration with Glycine (pH 2.0, 30 μL/min for 5 seconds).

[11] = target: T5, Histidine-tagged rCD3e protein (rhesus macaque, Macaca mulatta) (rhesus macaque (Macaca mulatta), UniProt Q95LI5 22-117 (cynomolgus entry), limits assumed); test: SPR, Biacore T200, antibody on Protein A chip, rCD3e-His injected
T5 construct: also called rCD3e-His; rmCD3e; not shown: His tag
T5 chain: T3 sequence with Q16H, A36V
Method: as §4
Experiments were also performed to test the binding affinities with rCD3e (rhesus macaque, or Macaca mulatta). Anti-hCD3e antibodies (1:20) were injected into Biacore T200 biosensor at 10 μL/min for 30 seconds to achieve to a desired protein density. Histidine-tagged rCD3e proteins (rCD3e-His) with different concentrations (100 nM 0.390625 nM) were then injected to the system at 30 μL/min for 150 seconds. Dissociation was monitored for 450 seconds. The chip was regenerated after the last injection of each titration with Glycine (pH 2.0, 30 μL/min for 12 seconds).

[12] = target: T2, Histidine-tagged human CD3e protein; test: SPR (Biacore), human CD3e; same numbers as Table 7; remark: listed apart in the source
[13] = target: T1, human CD3e (T-cell surface glycoprotein …); test: cell-based or functional assay; remark: listed apart in the source

EC50, luciferase of Jurkat-Luc-NFAT cells with CHO-FcγRIIB cells [1]: 2.98 µg/mL
B1: 30-1B1 (antibody, V domains shown)
VH: QVQLQQPGSELVRPGASVKLSCKASGYTFTSYWMHWVKQRHGQGLEWIGNIYPDSGTTNYGEKFKTKGTLTVDTSSSTAYMHLSSLTSEDSAVYYCTRDTSGQYYFDYWGQGTTLTVSS
VL: DIVMSQSPSSLAVSAGEKVTMSCKSSQSLLNSRTRKNYLAWYQHKPGQSPKLLIYWASTRESGVPDRFTGSGSGTDFTLTISSVQAEDLAVYYCVQSFSLRAFGGGTKLEIK

EC50, luciferase of Jurkat-Luc-NFAT cells; antibody from supernatant [2]: > 3.08 µg/mL
Kd [3]: 1.2 nM
koff [3]: 0.000669 s⁻¹
kon [3]: 558000 M⁻¹ s⁻¹
Kd [4]: 7.59 nM
koff [4]: 0.00072 s⁻¹
kon [4]: 94900 M⁻¹ s⁻¹
upper left quadrant, percent of cells AF647+ / hTcRβ-PerCP- [5]: 9.83%
upper right quadrant, percent of cells AF647+ / hTcRβ-PerCP+ [5]: 62.4%
upper left quadrant, percent of cells AF647+ / hTcRβ-PerCP- [6]: 9.94%
upper right quadrant, percent of cells AF647+ / hTcRβ-PerCP+ [6]: 63.5%
upper left quadrant, percent of cells AF647+ / hTcRβ-PerCP- [7]: 11.6%
upper right quadrant, percent of cells AF647+ / hTcRβ-PerCP+ [7]: 58.1%
upper left quadrant, percent of cells AF647+ / hTcRβ-PerCP- [8]: 80.5%
upper right quadrant, percent of cells AF647+ / hTcRβ-PerCP+ [8]: 14.9%
B2: 1B1-H1K2-IgG1-LALA (antibody, V domains shown)
VH: QVQLVQSGAEVKKPGASVKVSCKASGYTFTSYWMHWVRQAPGQGLEWIGNIYPDSGTTNYGEKFKTRVTLTVDTSTSTAYMELSSLRSEDTAVYYCTRDTSGQYYFDYWGQGTLVTVSS
VL: B1 VL with S5T, S9D, K18R, S22N, T69S, V84L, L89V, L109V
notes: Humanized; human IgG1 with LALA mutations; also called H1K2 (humanized 1B1)

Kd [4]: 4.54 nM
koff [4]: 0.00049 s⁻¹
kon [4]: 108000 M⁻¹ s⁻¹
Kd [9]: 0.988 nM
koff [9]: 0.000509 s⁻¹
kon [9]: 516000 M⁻¹ s⁻¹
Kd [10]: 0.988 nM
koff [10]: 0.000509 s⁻¹
kon [10]: 516000 M⁻¹ s⁻¹
Kd [11]: 0.752 nM
koff [11]: 0.00039 s⁻¹
kon [11]: 518000 M⁻¹ s⁻¹
B3: C3E-30-1B1-mHvKv-IgG1-LALA (antibody, V domains shown)
VH: B1 VH
VL: B1 VL
notes: Chimeric

EC50, luciferase of Jurkat-Luc-NFAT cells; antibody from supernatant [2]: > 16.7 µg/mL
Kd [3]: 1.01 nM
koff [3]: 0.000651 s⁻¹
kon [3]: 644000 M⁻¹ s⁻¹
Kd [4]: 5.39 nM
koff [4]: 0.000591 s⁻¹
kon [4]: 110000 M⁻¹ s⁻¹
upper left quadrant, percent of cells AF647+ / hTcRβ-PerCP- [5]: 10.4%
upper right quadrant, percent of cells AF647+ / hTcRβ-PerCP+ [5]: 60.6%
upper left quadrant, percent of cells AF647+ / hTcRβ-PerCP- [6]: 10.9%
upper right quadrant, percent of cells AF647+ / hTcRβ-PerCP+ [6]: 61.2%
upper left quadrant, percent of cells AF647+ / hTcRβ-PerCP- [7]: 10.8%
upper right quadrant, percent of cells AF647+ / hTcRβ-PerCP+ [7]: 59.1%
upper left quadrant, percent of cells AF647+ / hTcRβ-PerCP- [8]: 88.3%
upper right quadrant, percent of cells AF647+ / hTcRβ-PerCP+ [8]: 8.61%
B4: 1B1-H2K3-IgG1-LALA (antibody, V domains shown)
VH: B2 VH with V20L
VL: B1 VL with S5T, S9D, K18R, S22N, T69S, L89V
notes: Humanized; human IgG1 with LALA mutations; also called H2K3 (humanized 1B1)

EC50, luciferase of Jurkat-Luc-NFAT cells with CHO-FcγRIIB cells [1]: 0.421 µg/mL
B5: 25-10A4 (antibody, V domains shown)
VH: QVQLQQSGPELVKPGASVRISCKASGYTFTSYYIHWVKQRPGQGLEFIGWIYPGNVNAKYNEKFKGKATLTTDKSSTTAYMQLSSLTSEDSAVYFCAIKGGNYDWGQGTLVTVSA
VL: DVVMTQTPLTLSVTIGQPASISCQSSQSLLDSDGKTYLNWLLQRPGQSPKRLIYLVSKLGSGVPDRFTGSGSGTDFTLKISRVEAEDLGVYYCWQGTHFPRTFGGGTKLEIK

Kd [4]: 9.05 nM
koff [4]: 0.000453 s⁻¹
kon [4]: 50000 M⁻¹ s⁻¹
Kd [12]: 5.37 nM
koff [12]: 0.000384 s⁻¹
kon [12]: 71500 M⁻¹ s⁻¹
Kd [10]: 5.37 nM
koff [10]: 0.000384 s⁻¹
kon [10]: 71500 M⁻¹ s⁻¹
Kd [11]: 2.05 nM
koff [11]: 0.000251 s⁻¹
kon [11]: 123000 M⁻¹ s⁻¹
B6: C3E-25-10A4-mHvKv-IgG1-LALA (antibody, V domains shown)
VH: B5 VH
VL: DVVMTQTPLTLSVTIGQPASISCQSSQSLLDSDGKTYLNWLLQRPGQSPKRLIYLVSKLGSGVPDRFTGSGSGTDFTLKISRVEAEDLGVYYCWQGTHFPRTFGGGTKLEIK
notes: Chimeric

EC50, luciferase of Jurkat-Luc-NFAT cells; purified antibody [13]: 0.149 µg/mL
EC50, luciferase of Jurkat-Luc-NFAT cells; purified antibody [2]: 0.449 µg/mL
B7: Teplizumab (antibody, V domains shown)
VH: QVQLVQSGGGVVQPGRSLRLSCKASGYTFTRYTMHWVRQAPGKGLEWIGYINPSRGYTNYNQKVKDRFTISRDNSKNTAFLQMDSLRPEDTGVYFCARYYDDHYCLDYWGQGTPVTVSS
VL: DIQMTQSPSSLSASVGDRVTITCSASSSVSYMNWYQQTPGKAPKRWIYDTSKLASGVPSRFSGSGSGTDYTFTISSLQPEDIATYYCQQWSSNPFTFGQGTKLQITR
